One series has as its system RAW 264.7 cells. Briefly: TNF mRNA expression in RAW 264.7 cells (RNase protection assay). It counts as cell-based, murine. The conditions noted are these: 10 μg/ml. The protocol:
The kinetics of B box-induced TNF release was also examined. TNF release and TNF mRNA expression was measured in RAW 264.7 cells induced by B box polypeptide or GST tag polypeptide only used as a control (vector) (10 μg/ml) for 0 to 48 hours. Supernatants were analyzed for TNF protein levels by an L929 cytotoxicity assay (N=3-5) as described herein. For mRNA measurement, cells were plated in 100 mm plate and treated in Opti-MEM I medium containing B box polypeptide or the vector alone for 0, 4, 8, or 24 hours, as indicated in FIG. 2D. The vector only sample was assayed at the 4 hour time point. Cells were scraped off the plate and total RNA was isolated by RNAzol B method in accordance with the manufacturer's instructions (Tel-Test “B”, Inc., Friendswood, Tex.). TNF (287 bp) was measured by RNase protection assay (Ambion, Austin, Tex.). Equal loading and the integrity of RNA was verified by ethidium bromide staining of the RNA sample on agarose-formaldehyde gel. […] TNF mRNA expression was maximal at 4 hours and decreased at 8 and 24 hours. […] A similar study was carried out measuring TNF protein released from RAW 264.7 cells 0, 4, 8, 24, 32 or 48 hours after administration of B box or vector only (GST tag), using the L929 cytotoxicity assay described herein. […] Data are representative of three separate experiments.

The subject of series [1] is D-galactosamine-sensitized Balb/c mice. Briefly: Toxicity in D-galactosamine-sensitized Balb/c mice (survival). It counts as in vivo. As for the experimental part:
The D-galactosamine-sensitized model has been described previously (Galanos et al., Proc Natl. Acad. Sci. USA 76: 5939-5943, 1979; and Lehmann et al., J. Exp. Med. 165: 657-663, 1997). Mice were injected intraperitoneally with 20 mg D-galactosamine-HCL (Sigma)/mouse (in 200 μl PBS) and 0.1 or 1 mg of either HMGB1 B box or vector protein (in 200 μl PBS). Mortality was recorded daily for up to 72 hours after injection; survivors were followed for 2 weeks, and no later deaths from B box toxicity were observed.
To investigate whether the HMGB1 B box has cytokine activity in vivo, we administered HMGB1 B box protein to unanesthetized Balb/c mice sensitized with D-galactosamine (D-gal), a model that is widely used to study cytokine toxicity (Galanos et al., supra). Briefly, mice (20-25 gram, male, Harlan Sprague-Dawley, Indianapolis, Ind.) were intraperitoneally injected with D-gal (20 mg) (Sigma) and B box (0.1 mg/ml/mouse or 1 mg/ml/mouse) or GST tag (vector; 0.1 mg/ml/mouse or 1 mg/ml/mouse), as indicated in Table 1. Survival of the mice was monitored up to 7 days to ensure no late death occurred.

Marks after values point to notes of the source that are not given here.

B1: B box: Human HMGB1 mutant containing only the B box, SEQ ID NO:20 (protein)
chain: FKDPNAPKRLPSAFFLFCSEYRPKIKGEHPGLSIGDVAKKLGEMWNNTAADDKQPYEKKAAKLKEKYEKDIAAY
In the case of B1, the “time of maximal TNF mRNA expression” value in the series with RAW 264.7 cells came to 4 h. For the same molecule, the “TNF mRNA expression” value in the series with RAW 264.7 cells (0-24 hours (vector at 4 hours)) is recorded as “increased significantly”. In addition, the Alive/total was 6/6 in series [1] (0.1 mg/mouse ip with D-gal 20 mg) and 2/8* in series [1] (1 mg/mouse ip with D-gal 20 mg). Besides, in series [1] (D-galactosamine-sensitized mice), the lethality result is “lethal to D-galactosamine-sensitized mice in a dose-dependent manner”. The time to death in series [1] (instances in which death occurred) is at most 12 h.

The values above are taken from US7897569B2, “Use of HMGB fragments as anti-inflammatory agents” (The Feinstein Institute for Medical Research, priority 2001, dated 2011).
